Results on one molecule are retold here after paper PMC10730160 (mAbs, 2023).

Experiment [1] concerns the target mouse CTLA-4, on CHO-K1 cells (Mus musculus, UniProt P09793). Kind of experiment: ELISA.
Experiment [2] has as its target CTLA-4 antigen (in solution, for HDX-MS and cross-linking) (human, UniProt P16410). In words: HDX-MS.
Experiment [3] has as its target human CTLA-4, wild type, on CHO-K1 cells (human, UniProt P16410). In words: flow cytometry on cells. (In general: In flow cytometry, cells or beads pass a laser one at a time.)

Chain of human CTLA-4, wild type, on CHO-K1 cells (P16410 36-223): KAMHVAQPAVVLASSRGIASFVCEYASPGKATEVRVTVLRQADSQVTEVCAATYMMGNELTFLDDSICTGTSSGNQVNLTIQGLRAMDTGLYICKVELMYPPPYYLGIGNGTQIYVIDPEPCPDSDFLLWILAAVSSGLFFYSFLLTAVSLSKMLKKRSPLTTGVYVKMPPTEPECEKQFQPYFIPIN
Chain of CTLA-4 antigen (in solution, for HDX-MS and cross-linking) (P16410 36-223): as above

B1: tremelimumab (antibody, V domains shown)
VH: QVQLVESGGGVVQPGRSLRLSCAASGFTFSSYGMHWVRQAPGKGLEWVAVIWYDGSNKYYADSVKGRFTISRDNSKNTLYLQMNSLRAEDTAVYYCARDPRGATLYYYYYGMDVWGQGTTVTVSS
VL: DIQMTQSPSSLSASVGDRVTITCRASQSINSYLDWYQQKPGKAPKLLIYAASSLQSGVPSRFSGSGSGTDFTLTISSLQPEDFATYYCQQYYSTPFTFGPGTKVEIK
On to B1, for which the binding result in experiment [1] was “no binding”; in experiment [2], “binds”; in experiment [3], “binds”.
